The assay relates to EG7 (EL4 transfected with ovalbumin) and EL4 target cells. The experiment in a line: CTL activity (51Cr release cytotoxic cell assay) of spleen cells from mice immunized with OVA formulations. The format is in vivo. The conditions noted are these: subcutaneous, dose 10 μg, boosted at 14 and 28 days; for CTL activity relative to the other OVA formulations: comparison in words; for CTL response: percent specific 51Cr release. As to the method: Ovalbumin, PLG/OVA-entrapped particles, small OVA-protein particles (250 nm) and large OVA-protein particles (2500 nm), produced as described above, were administered subcutaneously to mice (dose=10 μg). The animals were boosted at 14 and 28 days. […] two weeks following the last immunization and CTL activity assayed as described in Doe et al., Proc. Natl. Acad. Sci. (1996) 93:8578-8583.
Lymphocyte cultures were prepared as follows. Spleen cells (sc) from immunized mice were cultured in 24-well dishes at 5×10^6 cells per well. Of those cells, 1×10^6 were sensitized with synthetic epitopic peptides from EG7 (EL4 transfected with ovalbumin) and EL4 proteins at a concentration of 10 μM for 1 hour at 37° C., washed, and cocultured with the remaining 4×10^6 untreated sc in 2 ml of culture medium [50% RPMI 1640 and 50% alpha-MEM (GIBCO)] supplemented with heat-inactivated fetal serum, 5×10^−5 M 2-mercaptoethanol, antibiotics, and 5% interleukin-2 (Rat T-Stim, Collaborative Biomedical Products, Bedford, Mass.). Cells were fed with 1 ml of fresh culture medium on days 3 and 5, and cytotoxicity was assayed on day 6.
The cytotoxic cell assay was conducted as follows. EG7 (EL4 transfected with ovalbumin) and EL4 target cells used in the ^51Cr release assays express class I but not class II MHC molecules. Approximately 1×10^6 target cells were incubated in 200 μl of medium containing 50 μCi (1 Ci=37 Gbq) of ^51Cr and synthetic Ovalbumin peptides (1 μm) for 60 min and washed three times. Effector (E) cells were cultured with 5×10^3 target (T) cells at various EST ratios in 200 μl of culture medium in 96-well round-bottom tissue culture plates for 4 hours. The average cpm from duplicate wells was used to calculate percent specific ^51Cr release.

“Also recorded” adds a separate entry of the source.

B1: small OVA-protein particles: Heat-stabilized ovalbumin protein particles formed by acetone coacervation, about 250 nm in diameter (protein, UniProt P01012 2-386, looked up)
Ovalbumin: GSIGAASMEFCFDVFKELKVHHANENIFYCPIAIMSALAMVYLGAKDSTRTQINKVVRFDKLPGFGDSIEAQCGTSVNVHSSLRDILNQITKPNDVYSFSLASRLYAEERYPILPEYLQCVKELYRGGLEPINFQTAADQARELINSWVESQTNGIIRNVLQPSSVDSQTAMVLVNAIVFKGLWEKAFKDEDTQAMPFRVTEQESKPVQMMYQIGLFRVASMASEKMKILELPFASGTMSMLVLLPDEVSGLEQLESIINFEKLTEWTSSNVMEERKIKVYLPRMKMEEKYNLTSVLMAMGITDVFSSSANLSGISSAESLKISQAVHAAHAEINEAGREVVGSAEAGVDAASVSEEFRADHPFLFCIKHIATNAVLFFGRCVSP
modifications: heat-stabilized particles
notes: Heat-stabilized ovalbumin protein particles formed by acetone coacervation, about 250 nm in diameter
Regarding B1, the “CTL activity relative to the other OVA formulations” value is “activity comparable to the large OVA-protein particles; also recorded: more active, e.g., elicited a greater immune response than the PLG/OVA-entrapped particles and ovalbumin alone formulations”; the CTL response entry was “elicited a CTL response”.

B2: large OVA-protein particles: Heat-stabilized ovalbumin protein particles formed by acetone coacervation, about 2.5 μm in diameter (protein, UniProt P01012 2-386, looked up)
Ovalbumin: GSIGAASMEFCFDVFKELKVHHANENIFYCPIAIMSALAMVYLGAKDSTRTQINKVVRFDKLPGFGDSIEAQCGTSVNVHSSLRDILNQITKPNDVYSFSLASRLYAEERYPILPEYLQCVKELYRGGLEPINFQTAADQARELINSWVESQTNGIIRNVLQPSSVDSQTAMVLVNAIVFKGLWEKAFKDEDTQAMPFRVTEQESKPVQMMYQIGLFRVASMASEKMKILELPFASGTMSMLVLLPDEVSGLEQLESIINFEKLTEWTSSNVMEERKIKVYLPRMKMEEKYNLTSVLMAMGITDVFSSSANLSGISSAESLKISQAVHAAHAEINEAGREVVGSAEAGVDAASVSEEFRADHPFLFCIKHIATNAVLFFGRCVSP
modifications: heat-stabilized particles
notes: Heat-stabilized ovalbumin protein particles formed by acetone coacervation, about 2.5 μm in diameter
Consider B2, for which the “CTL activity relative to the other OVA formulations” value was “more active, e.g., elicited a greater immune response than the PLG/OVA-entrapped particles and ovalbumin alone formulations”; the CTL response entry is listed as “elicited a CTL response”.
